Source: patent US20130040825A1, “DNA DAMAGE DETECTION ASSAY AND METHOD” (priority 2011, published 2013)

Experiments:
BER− cells = assay: q-PADDA quantification of in vivo induced DNA damage in BER− cells in logarithmic phase; type: cell-based, Saccharomyces cerevisiae; conditions: BER− yeast cells (FIG. 4A, 4B)
Description: We quantified induced DNA damage after in vitro and/or in vivo exposure to a dose escalation of H2O2 (1 μM to 500 mM) and methyl methanosulfonate (MMS) (1 mM to 1 M). For in vitro assays, a 1,750 bp fragment of the CAN1 gene was amplified by PCR and cloned into the pJET1.2 vector (Fermentas, Glenn Burie, Md.) using standard protocols. Plasmid DNA was sequence verified, extracted using CsCl and dialyzed overnight against 500 ml H2O. Five μg of dialyzed DNA were treated with H2O2 in the presence of 0.3 M sucrose and 100 μM Fe^2+ as described (84), or with MMS in water (85). Treated DNA was recovered by ethanol precipitation. […] For high-throughput damage quantification, the highly purified streptavidin bound extended products were re-suspended in 50 μl TE and amplified by Real-Time PCR using one of 2 Real-Time PCR detection Systems: IQ5 Real-Time PCR detection System or Qx100 digital droplet PCR system.
For the IQ5 Real-Time PCR detection System using Sybr Green, reactions were carried out in an in a 25 μl final volume with PCR buffer (40 mM Tricine-KOH (pH 8.0), 16 mM KCl, 3.5 mM MgCl2, 3.75 μg/ml bovine serum albumin), 1:75,000 dilution SYBR Green I (Invitrogen), 0.8 mM total dNTPs (Fermentas), 0.7 units JUMPSTART Taq polymerase (Sigma), 0.32 μM each oligo, and 1/32 of total extended product pool. […] The long fragment (513 to 628 bases) was used to assess damage quantification. […]

CAN1 gene = assay: q-PADDA quantification of induced DNA damage after in vitro exposure of cloned CAN1 plasmid DNA; type: biochemical, Saccharomyces cerevisiae
Description: We quantified induced DNA damage after in vitro and/or in vivo exposure to a dose escalation of H2O2 (1 μM to 500 mM) and methyl methanosulfonate (MMS) (1 mM to 1 M). For in vitro assays, a 1,750 bp fragment of the CAN1 gene was amplified by PCR and cloned into the pJET1.2 vector (Fermentas, Glenn Burie, Md.) using standard protocols. Plasmid DNA was sequence verified, extracted using CsCl and dialyzed overnight against 500 ml H2O. Five μg of dialyzed DNA were treated with H2O2 in the presence of 0.3 M sucrose and 100 μM Fe^2+ as described (84), or with MMS in water (85). Treated DNA was recovered by ethanol precipitation. For in vivo induced DNA damage assays, BER− cells in logarithmic phase were treated with varying doses and times of MMS as described (85). For a control, cells were treated with water in place of MMS. Genomic DNA was extracted as described above, except MMS concentration was kept constant during spheroplasting. […] Control samples were processed as treated samples except water was added in place of the specific genotoxic. Experiments were repeated at least in triplicate. For high-throughput damage quantification, the highly purified streptavidin bound extended products were re-suspended in 50 μl TE and amplified by Real-Time PCR using one of 2 Real-Time PCR detection Systems: IQ5 Real-Time PCR detection System or Qx100 digital droplet PCR system.
For the IQ5 Real-Time PCR detection System using Sybr Green, reactions were carried out in an in a 25 μl final volume with PCR buffer (40 mM Tricine-KOH (pH 8.0), 16 mM KCl, 3.5 mM MgCl2, 3.75 μg/ml bovine serum albumin), 1:75,000 dilution SYBR Green I (Invitrogen), 0.8 mM total dNTPs (Fermentas), 0.7 units JUMPSTART Taq polymerase (Sigma), 0.32 μM each oligo, and 1/32 of total extended product pool. Amplification was monitored and analyzed by measuring the intercalation of the fluorescent dye to double-stranded DNA according to the manufacturer's instructions. To quantify damage on each strand of the yeast CAN1 gene, two fragments of different lengths located in the same genomic region were amplified. The long fragment (513 to 628 bases) was used to assess damage quantification. The short fragment (67 to 68 bases), representing undamaged DNA, was used as an internal normalization control. The PCR conditions for the different fragments were optimized to achieve similar amplification efficiencies required to compare different amplicons. All products were amplified under the following conditions: 95° C., 3 min; 40 cycles (95° C., 15 s; 63° C., 40 s). Each sample was assayed in at least three independent experiments, each with at least four wells per sample, from three separate yeast cultures and DNA extractions. […]

naked DNA = assay: PADDA detection of cytosine deamination after exposure of naked DNA to serial dilutions of sodium bisulfite; type: biochemical; conditions: serial dilutions (FIG. 6)
Vent exo− = molecular target: T1, Vent exo− (Thermococcus litoralis, UniProt P30317, D141A/DEL1082-1471/DEL495-1032/E143A); assay: f-PADDA primer extension on synthetic oligonucleotides containing a single engineered lesion; type: biochemical; conditions: for lesion detected in primer extensions (sensitivity of PADDA): engineered lesion in 64 base template, at least 20 independent events per lesion; for Lesion Bypass with Misincorporation (LBM): misincorporation without replicative arrest; for Stops with Misincorporation (SMs): replicative arrest with misincorporation opposite the damaged base; for Stops: replicative arrest without misincorporation; for lesion acting as Vent exo− blocking lesion: share of all primer extensions
T1 construct: Vent exo−, a truncated form of a native DNA polymerase (Vent, NEB); purchased NEB
T1 sequence (P30317 other isoform, or with tags, fused parts or gaps D141A/E143A/DEL495-1032/DEL1082-1471): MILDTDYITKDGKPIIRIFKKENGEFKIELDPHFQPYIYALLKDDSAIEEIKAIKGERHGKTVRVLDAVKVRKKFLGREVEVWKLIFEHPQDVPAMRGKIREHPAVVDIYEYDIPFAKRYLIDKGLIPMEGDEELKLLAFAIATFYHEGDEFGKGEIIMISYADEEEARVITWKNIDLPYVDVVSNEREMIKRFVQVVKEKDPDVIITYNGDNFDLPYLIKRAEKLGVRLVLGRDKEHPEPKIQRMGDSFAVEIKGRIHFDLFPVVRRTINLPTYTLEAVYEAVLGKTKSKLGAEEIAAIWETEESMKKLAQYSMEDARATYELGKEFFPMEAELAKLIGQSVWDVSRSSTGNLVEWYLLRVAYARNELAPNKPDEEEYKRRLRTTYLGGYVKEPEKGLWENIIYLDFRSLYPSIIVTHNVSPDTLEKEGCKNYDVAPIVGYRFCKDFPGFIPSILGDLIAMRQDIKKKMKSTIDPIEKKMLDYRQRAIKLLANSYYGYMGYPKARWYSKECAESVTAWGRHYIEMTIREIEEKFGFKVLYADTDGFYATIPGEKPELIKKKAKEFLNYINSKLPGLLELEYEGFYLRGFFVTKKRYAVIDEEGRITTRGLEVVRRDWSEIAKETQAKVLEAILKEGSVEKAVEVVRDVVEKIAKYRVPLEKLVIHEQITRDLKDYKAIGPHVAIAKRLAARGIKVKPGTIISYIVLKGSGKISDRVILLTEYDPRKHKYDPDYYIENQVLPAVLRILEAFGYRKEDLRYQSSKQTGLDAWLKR
Description: A single non-cycled primer-extension reaction in the region of interest was performed to screen for DNA damage. It will be understood that the presently disclosed and claimed inventive concepts are not limited to these oligonucleotides. For damage detection in synthetic DNA, we prepared a 22.8 μl primer extension reaction containing 1× Thermopol buffer (NEB, Ipswich, Mass.), 0.2 mM each dNTP (Fermentas, Glen Burie, Md.), 20 pmol of a 5-biotin-tagged primer, and 20 pmol of a 64 base template containing either a synthetic abasic or 8-OxoG lesion, along with a control (undamaged oligo). To generate a pool of biotin-tagged extended products (FIG. 1A), the mix was incubated at 94° C. for 3 min, held at 85° C. to add 0.08 U of Vent exo− (NEB), and then incubated at 58° C. for 2 min (annealing), and 75° C. for 2 min (extension). For damage detection in genomic DNA, we used 500 ng of S. cerevisiae genomic DNA, 0.8 U of Vent exo−, and 2 pmol of a 5-biotin-tagged gene specific primer. A sample containing all reagents except Vent exo− was used as a negative control for all experiments. The non-cycled primer-extension contrasts with the multiple-cycle primer-extension reaction of previous assays, and generates a pool of highly specific biotin-tagged extended products (EPs), each of them derived from a single DNA molecule and strand (FIG. 1A). The use of a 5-biotin-tagged sequence specific primer allows for subsequent steps aimed at reducing the background of the technique. Vent exo−, a truncated form of a native DNA polymerase (Vent, NEB), was chosen for this assay instead of the currently used Sequenase (13) or Taq DNA polymerase (14), because of its reported high sensitivity to detect DNA damage (21) and primer-extension efficiency (22-24). To optimize primer-extension performance, Vent exo− units were adjusted to the complexity of the DNA being screened (22).
For the purpose of mapping strand-specific nucleotide damage (f-PADDA), the 3′-end of the highly purified extended products was attached to the 5′-end of a chemically modified adapter-primer using Thermophage single-stranded DNA ligase (Prokaria, Reykjavik, Iceland) [Currently Circligase I from Epicentre, Madison, Wis.]. Thermophage was chosen for this reaction because its efficiency for single-strand ligation is higher than that of T4 RNA ligase (25) used in some PCR-based assays. […] Purified extended-products were first washed with 20 μl of 1× Thermophage ssDNA ligase buffer and then resuspended in 3.7 μl of 1× Thermophage ssDNA ligase buffer. The ligation was performed as recommended by Prokaria except 1.5 μM adapter and 10 U ssDNA ligase in a final 10 μl volume were used under the following conditions: 55° C. for 1 h, 65° C. for 15 min, and 70° C. for 15 min. Then, samples were spun briefly and the supernatant removed as before in the presence of a magnet. The adapter-ligated extended-products were washed with 1 ml of 2× B&W buffer, and then incubated with 1 ml of 0.5 M NaOH for 5 min to completely remove free adapters and non-specifically bound DNA. Finally, the supernatant was discarded and the bound products were washed with 200 μl of 2× B&W buffer. The adapter-linked extended-products pool was then washed with 20 μl of 1× Phusion HF PCR buffer and amplified for 35-cycles using Phusion Hot-Start DNA Polymerase (Finnzymes), an oligonucleotide complementary to the adapter-primer and a nested gene-specific primer according to the manufacturer's instructions. Phusion Hot-Start DNA Polymerase has the highest available accuracy (error rate=4.4×10^−7) and generates blunt-end products. After PCR amplification, the supernatant was collected under a magnetic field for use in cloning (CLONE JET PCR cloning kit, Fermentas) and transformation following standard procedures. This cloning strategy yields 99% of clones positive for a cloned insert. […]

Molecule | lesion detected in primer extensions (sensitivity of PADDA) (Vent exo−) [%] | Stops with Misincorporation (SMs) (Vent exo−) [%] | Stops (Vent exo−) [%] | lesion acting as Vent exo− blocking lesion (Vent exo−) [%] | also measured
COS(C)(=O)=O [MMS, methyl methanosulfonate] |  |  |  |  | in vivo DNA damage induced by dose escalation or by increase in exposure time (BER− cells): increase in in vivo DNA damage; in vitro DNA damage induced by dose escalation (CAN1 gene; dose escalation (FIG. 5)): increase in in vitro DNA damage
O=S([O-])O.[Na+] [sodium bisulfite] |  |  |  |  | DNA change induced in naked DNA (naked DNA): deamination of unmethylated cytosines to uracil
OO [H2O2, Hydrogen peroxide] |  |  |  |  | total CAN1 DNA damage compared to the control (CAN1 gene; each dose escalation from 1 μM to 500 mM): significant increase in total CAN1 DNA damage; lowest dose giving a significant increase in damage, NTS (CAN1 gene; non-transcribed strand of CAN1, p<0.005): 1 µM; lowest dose giving a significant increase in damage, TS (CAN1 gene; transcribed strand of CAN1, p<0.005): 10 µM
8-OxoG lesion: synthetic template oligonucleotide containing a single 7,8-dihydro-8-oxo-2′-deoxyguanosine (8-oxo-dG) (nucleic acid, 8-oxo-dG lesion, chemistry not fully specified) DNA: CCACTCACCNTGCACATAACAGACTTGGCTGTCCCAGACTGCAGGAAGCCCAGGTGGAAGCCAT | 85 | 15 | 8 | 23 | Bypass by Vent exo− without misincorporation (Vent exo−): 15%; Lesion Bypass with Misincorporation (LBM) (Vent exo−): 62%
thymine glycol lesion: synthetic template oligonucleotide containing a single 5R,6S-dihydroxy-5,6-dihydrothymine (thymine glycol) (nucleic acid, thymine glycol lesion, further chemistry not given here) DNA: CCACTCACCGGCACATAACAGACTTGGCTGTCCCAGACTGCAGGAAGCCCAGGTGGAAGCCAT | 67 |  |  |  | 
Abasic sites: 64 base synthetic template oligonucleotide with a single abasic site (dSpacer tetrahydrofuran analog) (nucleic acid, abasic tetrahydrofuran site, further chemistry not given here) DNA: CCACTCTCCATGCACATAACAGACTTGGCTCACCTGCACTCAGGAAGCCCAGGTGGAAGCCAT | 100 | 50 | 45 | 95 | Lesion Bypass with Misincorporation (LBM) (Vent exo−): 5%
8-oxo-dA lesion: synthetic template oligonucleotide containing a single 7,8-dihydro-8-oxo-2′-deoxyadenosine (8-oxo-dA) (nucleic acid, 8-oxo-dA lesion, chemistry not fully specified) DNA: CCACTCTCCATGCACATAACAGACTTGGCTGTGCNCGGTGCTCAGGAAGCCCAGGTGGAAGCCAT | 100 | 10 | 90 | 100 | 
